US20240166739A1 (KISOJI BIOTECHNOLOGY, published 2024)
Each block holds one binder with its values, some of them ahead of it.

Columns and labels:
[1] = molecular target: T1, recombinant human PD-1 protein (human, UniProt Q15116 25-167); assay: ELISA on coated recombinant PD-1, anti-human-Fc-HRP detection
T1 construct: Bought protein; also called human recombinant PD1 protein; PD-1 recombinant protein
Procedure: (§1) The binding of binding agents comprising anti-PD-1 and -CD47 antigen binding domain to recombinant human or cynomolgous PD-1 (Cedarlane, Cat. No. HPLC-10377-H08H-100) or recombinant human or cynomolgous CD47 (Cedarlane, Cat. No. 12283-H08H-200 and 90869-C08H) was assessed by ELISA (FIG. 9A, FIG. 9B, FIG. 9C, FIG. 9D, FIG. 22, FIG. 23). […] The monoclonal anti-CD47 antibody (clone B6H12) was used as a positive control in CD47 binding assays (Biolegend, Cat. No. 401401).
(§2) Briefly, recombinant proteins were coated on 96-well plates. Plates were covered and left at 4° C. overnight. The next day, plates were washed once with PBS and blocked with blocking buffer for 1 hour at room temperature. Binding agents were tested at the indicated concentration, diluted in the blocking buffer, and incubated for 1 hour at 37° C. After incubation, plates were washed three times with washing buffer. Plates were incubated with anti-human-Fc-HRP (Sigma-Aldrich, Cat. No. APi 13P) diluted at 1:5000 for 1 hour at room temperature, then washed three times with PBS-T washing buffer. The signal was developed with SuperSignal™ ELISA Pico Chemiluminescent Substrate (Thermofisher, Cat. No. 37069). The plates were read on a SpectraMax™ i3x Multi-Mode Microplate Reader (Molecular Devices).

[2] = molecular target: T1, recombinant human PD-1 protein; assay: ELISA on coated recombinant PD-1 (FIG. 9A)
Procedure: as §1, §2

[3] = molecular target: T2, human PD-1 on CHO-PD1 cells (human, UniProt Q15116 25-288); assay: Flow cytometry, 20 µg/mL, CHO-PD1 against CHO parental cells (FIG. 10)
T2 construct: whole, on cells; also called CHO-PD-1 cell line
T2 sequence (Q15116 25-288): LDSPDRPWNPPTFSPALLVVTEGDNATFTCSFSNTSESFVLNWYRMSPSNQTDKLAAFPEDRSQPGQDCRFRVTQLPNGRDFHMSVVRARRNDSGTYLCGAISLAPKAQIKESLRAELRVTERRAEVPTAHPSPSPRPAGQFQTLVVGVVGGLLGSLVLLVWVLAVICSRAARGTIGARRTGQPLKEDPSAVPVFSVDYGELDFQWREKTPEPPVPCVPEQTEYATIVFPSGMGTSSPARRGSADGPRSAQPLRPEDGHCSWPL
Procedure: The binding of binding agents to cells was assessed by flow cytometry. […] Binding agents comprising anti-PD-1 antigen binding domain, were diluted in FACS staining buffer to 20 μg/mL and added and incubated with cells for 30 minutes on ice. The PD-1 antibody (clone EH12.2H7, Biolegend) was used as a positive control.

T1 sequence (Q15116 25-167 limits assumed): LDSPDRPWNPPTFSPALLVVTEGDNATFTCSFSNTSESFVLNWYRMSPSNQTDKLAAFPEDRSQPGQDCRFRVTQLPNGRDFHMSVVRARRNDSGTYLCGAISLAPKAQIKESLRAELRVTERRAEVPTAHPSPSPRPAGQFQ

binding result [1]: no binding
B1: KC035 (HEWL; HEWL; HEWL negative control binding agent) (Fc fusion)
chain: QVQLVESGGGSVQAGGSLRLSCAASGSTDSIEYMTWFRQAPGKAREGVAALYTHTGNTYYTDSVKGRFTISQDKAKNMAYLRMDSVKSEDTAIYTCGATRKYVPVRFALDQSSYDYWGQGTQVTVSSEPKSCDKTHTCPPCPAPELLGGPSVFLFPPKPKDTLMISRTPEVTCVVVDVSHEDPEVKFNWYVDGVEVHNAKTKPREEQYNSTYRVVSVLTVLHQDWLNGKEYKCKVSNKALPAPIEKTISKAKGQPREPQVYTLPPSREQMTKNQVSLTCLVKGFYPSDIAVEWESNGQPENNYKTTPPVLNSDGSFFLYSKLTVDKSRWQQGNVFSCSVMHEALHNHYTQESLSLSPGKAPAPAPAPAPKAQVQLVESGGGSVQAGGSLRLSCAASGSTDSIEYMTWFRQAPGKAREGVAALYTHTGNTYYTDSVKGRFTISQDKAKNMAYLRMDSVKSEDTAIYTCGATRKYVPVRFALDQSSYDYWGQGTQVTVSSGGGGSGGGGSGGGGSQVQLVESGGGSVQAGGSLRLSCAASGSTDSIEYMTWFRQAPGKAREGVAALYTHTGNTYYTDSVKGRFTISQDKAKNMAYLRMDSVKSEDTAIYTCGATRKYVPVRFALDQSSYDYWGQGTQVTVSS
notes: Three anti-HEWL VHHs in the VHH-Fc-VHH-VHH format; negative control for KC036

binding result [2]: binds | binding result [3]: binds
B2: KC036 (PD-1-specific binding agent; HEWL; PD1; HEWL) (Fc fusion)
chain: QVQLVESGGGSVQAGGSLRLSCAASGSTDSIEYMTWFRQAPGKAREGVAALYTHTGNTYYTDSVKGRFTISQDKAKNMAYLRMDSVKSEDTAIYTCGATRKYVPVRFALDQSSYDYWGQGTQVTVSSEPKSCDKTHTCPPCPAPELLGGPSVFLFPPKPKDTLMISRTPEVTCVVVDVSHEDPEVKFNWYVDGVEVHNAKTKPREEQYNSTYRVVSVLTVLHQDWLNGKEYKCKVSNKALPAPIEKTISKAKGQPREPQVYTLPPSREQMTKNQVSLTCLVKGFYPSDIAVEWESNGQPENNYKTTPPVLNSDGSFFLYSKLTVDKSRWQQGNVFSCSVMHEALHNHYTQESLSLSPGKAPAPAPAPAPKAQVQLQESGGGWVQPGGSLRLSCVASGFTFSRSSMSWHRQAPGKERDLVAIISSSGIITHYSDSVKGRFTISRDNAKDTVYLQMNSLKPEDTAVYVCNAVLDDDSGDYWGQGTQVTVSSGGGGSGGGGSGGGGSQVQLVESGGGSVQAGGSLRLSCAASGSTDSIEYMTWFRQAPGKAREGVAALYTHTGNTYYTDSVKGRFTISQDKAKNMAYLRMDSVKSEDTAIYTCGATRKYVPVRFALDQSSYDYWGQGTQVTVSS
notes: Anti-HEWL VHH - IgG1 hinge-CH2-mutated CH3 - rigid linker - KC009 anti-PD-1 VHH - (G4S)3 - anti-HEWL VHH; expressed as dimer; may comprise a His-tag or not
